Source: US20080027006A1
Like-named read-outs stand apart in the source and are kept apart here.

B1: HR-N2 (916-973) (peptide)
peptide: IQESLTTTSTALGKLQDVVNQNAQALNTLVKQLSSNFGAISSVLNDILSRLDKVEAEV
modifications: not checked

Columns and labels:
[1] = target: HR-C1 (1147-1185) (SARS coronavirus (Urbani strain))
[2] = target: HR-C1 (1147-1185) (SARS coronavirus (Urbani strain)); assay: CD thermal denaturation of the mixture at 222 nm
[3] = target: HR-C1 (1147-1185) (SARS coronavirus (Urbani strain)); assay: SEC of equimolar mixture (Superdex 75)
[4] = target: HR-C1 (1147-1185) (SARS coronavirus (Urbani strain)); assay: CD at 222 nm of the peptide mixture, 22 °C, 0.05 M K2PO4 buffer
[5] = target: HR-C2 (1165-1185) (SARS coronavirus (Urbani strain))
[6] = target: HR-C3 (1158-1185) (SARS coronavirus (Urbani strain))
[7] = target: HR-C4 (1151-1185) (SARS coronavirus (Urbani strain))

Binder	T1/2 of the complex [1]	[θ]222 observed (degrees·cm^2·dmol^-1) [1]	other results
B1	74 °C	-17900	rise of T1/2 relative to HR-N2 alone [2]: 6 °C
QNVLYENQKQIANQFNKAISQIQESLTTTSTALGK (modifications not checked) [HR-N7 (895-929)]		-7400	
FNKAISQIQESLTTTSTALGKLQDVVNQNAQALNT (modifications not checked) [HR-N9 (909-943)]	36 °C	-10800	higher molecular weight complex, percent of observed SEC area units [3]: 30%; rise of T1/2 relative to HR-C1 alone [2]: 3 °C
MQMAYRFNGIGVTQNVLYENQKQIANQFNKAISQI (modifications not checked) [HR-N5 (882-916)]			[θ]222 observed (degrees·cm^2·dmol^-1) [4]: -8500
QKQIANQFNKAISQIQESLTTTSTALGKLQDVVNQ (modifications not checked) [HR-N8 (902-936)]		-7900	
IQESLTTTSTALGKLQDVVNQNAQALNTLVKQLSS (modifications not checked) [HR-N10 (916-950)]	57 °C	-17700	[θ]222 observed (degrees·cm^2·dmol^-1) [5]: -3800; [θ]222 observed (degrees·cm^2·dmol^-1) [6]: -4900; T1/2 of the complex [7]: 56 °C; [θ]222 observed (degrees·cm^2·dmol^-1) [7]: -17900; increase of T1/2 from HR-C1 [2]: 24 °C
TSTALGKLQDVVNQNAQALNTLVKQLSSNFGAISS (modifications not checked) [HR-N11 (923-957)]		-8000	
FNGIGVTQNVLYENQKQIANQFNKAISQIQESLTT (modifications not checked) [HR-N6 (888-922)]		-8600	
